Assay results: article PMC8593083 (2021)
Substitutions are numbered along the chain they refer to. Numbers in names are those of the source.

B1: NSD2 E1099K mutant protein (973-1226) (domain or fragment)
chain: KLQREARETQESERKPPPYKHIKVNKPYGKVQIYTADISEIPKCNCKPTDENPCGFDSECLNRMLMFECHPQVCPAGEFCQNQCFTKRQYPETKIIKTDGKGWGLVAKRDIRKGEFVNEYVGELIDKEECMARIKHAHENDITHFYMLTIDKDRIIDAGPKGNYSRFMNHSCQPNCETLKWTVNGDTRVGLFAVCDIPAGTELTFNYNLDCLGNEKTVCRCGASNCSGFLGDRPKTSTTLSSEEKGKKTKKKTR
B2: wild-type NSD2 protein (973-1226) (domain or fragment)
chain: B1 chain with K127E
B3: NSD2 T1150A mutant protein (973-1226) (domain or fragment)
chain: B1 chain with K127E, T178A

Legend:
[1] = biological target: T1, nucleosome with the 185-bp DNA fragment (human, UniProt P0C0S8 2-130; P62807 2-124; P68431 2-136; P62805 2-103); experiment: MST; 185-bp nucleosome
[2] = biological target: T1, nucleosome with the 185-bp DNA fragment; experiment: nucleosome with 185-bp DNA

Binder	Kd [1] [nM]	Kd [2] [nM]
B1	202	202
B2	88	88
B3	70	70
